Where only a bound is given, the exact number is not on record here.

Assay [1] deals with T1, human MuSK (human, UniProt O15146 24-495).
T1 construct: Recombinant protein coated on ELISA plates (R&D Systems cat. 10189-MK) or on the Biacore chip; also called human muscle-specific tyrosine protein kinase; full length human MuSK
T1 sequence: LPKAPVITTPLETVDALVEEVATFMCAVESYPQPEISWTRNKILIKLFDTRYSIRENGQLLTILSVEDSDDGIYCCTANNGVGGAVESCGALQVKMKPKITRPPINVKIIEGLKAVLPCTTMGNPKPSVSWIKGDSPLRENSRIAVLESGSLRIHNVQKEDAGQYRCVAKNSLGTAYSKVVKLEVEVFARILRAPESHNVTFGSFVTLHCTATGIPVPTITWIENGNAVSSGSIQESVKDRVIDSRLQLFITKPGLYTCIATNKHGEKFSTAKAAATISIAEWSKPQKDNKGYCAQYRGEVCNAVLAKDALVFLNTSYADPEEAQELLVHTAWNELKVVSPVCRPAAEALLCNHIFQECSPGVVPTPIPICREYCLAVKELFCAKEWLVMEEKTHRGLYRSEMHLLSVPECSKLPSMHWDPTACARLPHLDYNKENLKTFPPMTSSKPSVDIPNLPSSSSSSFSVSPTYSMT
The assay is described as follows: Biacore, MuSK on chip (200RU), Fab dilution series. An excerpt: (§1) For affinity determination, a CMS chip was coated with either human or mouse MuSK (200RU) and a dilution series of the antibodies (mAbs and Fabs) was applied in order to be able to calculate the affinity.
A general note: In SPR one partner is held on a chip, and binding of the other changes the refractive index at the surface.

The target in assay [2] is T2, mouse MuSK (mouse, UniProt Q61006 22-494, limits assumed).
T2 construct: Coated on ELISA plates or on the Biacore chip; also called full length mouse MuSK; mouse MuSK (in house produced in HEK293 cells)
T2 sequence (looked up): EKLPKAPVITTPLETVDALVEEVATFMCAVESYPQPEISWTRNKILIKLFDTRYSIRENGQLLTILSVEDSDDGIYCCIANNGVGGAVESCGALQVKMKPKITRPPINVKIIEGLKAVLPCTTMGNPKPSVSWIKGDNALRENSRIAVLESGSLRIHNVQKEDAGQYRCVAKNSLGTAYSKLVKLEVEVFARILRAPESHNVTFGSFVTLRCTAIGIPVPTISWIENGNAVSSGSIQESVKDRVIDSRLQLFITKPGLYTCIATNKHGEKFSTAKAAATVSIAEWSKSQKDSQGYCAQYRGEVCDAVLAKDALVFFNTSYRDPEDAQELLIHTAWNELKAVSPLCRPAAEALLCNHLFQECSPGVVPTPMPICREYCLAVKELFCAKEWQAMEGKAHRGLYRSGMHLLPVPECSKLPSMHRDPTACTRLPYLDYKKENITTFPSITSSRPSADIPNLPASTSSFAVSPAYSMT
Put plainly: Biacore, MuSK on chip (200RU), Fab dilution series.
Excerpt: as §1

Assay [3] has as its target T2, mouse MuSK. Put plainly: Biacore, Fab.
Excerpt: as §1

Assay [4] concerns the target T3, mouse MuSK, endogenous (C2C12 myotubes; neuromuscular synapses of mice) (mouse, UniProt Q61006 22-868).
T3 construct: whole, on cells; also called MuSK at the synapse; synaptic MuSK
T3 sequence (looked up): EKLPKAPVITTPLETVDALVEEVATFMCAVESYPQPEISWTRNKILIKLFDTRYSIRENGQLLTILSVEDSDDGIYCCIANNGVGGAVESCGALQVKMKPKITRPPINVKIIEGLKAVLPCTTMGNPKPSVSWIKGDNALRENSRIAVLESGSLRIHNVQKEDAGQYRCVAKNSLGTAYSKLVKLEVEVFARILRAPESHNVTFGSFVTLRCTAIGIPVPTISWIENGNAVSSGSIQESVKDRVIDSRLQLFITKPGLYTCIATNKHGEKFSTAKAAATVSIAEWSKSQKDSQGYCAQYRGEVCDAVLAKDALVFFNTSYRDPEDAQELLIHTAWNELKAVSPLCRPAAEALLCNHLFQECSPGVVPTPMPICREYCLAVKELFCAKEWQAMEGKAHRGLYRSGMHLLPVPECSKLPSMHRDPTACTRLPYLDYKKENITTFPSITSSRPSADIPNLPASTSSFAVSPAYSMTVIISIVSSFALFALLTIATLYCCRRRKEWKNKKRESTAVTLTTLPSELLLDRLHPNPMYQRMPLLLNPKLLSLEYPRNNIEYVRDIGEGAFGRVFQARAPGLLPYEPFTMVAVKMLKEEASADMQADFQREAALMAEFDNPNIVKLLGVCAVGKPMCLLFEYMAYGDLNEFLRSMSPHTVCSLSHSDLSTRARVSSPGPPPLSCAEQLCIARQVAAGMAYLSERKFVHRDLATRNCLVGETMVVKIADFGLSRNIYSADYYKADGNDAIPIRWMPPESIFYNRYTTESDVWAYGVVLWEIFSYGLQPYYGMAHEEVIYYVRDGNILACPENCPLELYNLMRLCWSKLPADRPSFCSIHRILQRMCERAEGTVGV
Put plainly: in vivo: wildtype mice injected i.p., diaphragm stained two days later with anti-human F(ab')2 Alexa 647 and Alexa 488-alpha-BGT; ratio of signal intensities at the synapse [continued].

Assay [5] deals with T4, mFz: Fz domain and C-terminal flanking sequence of mouse MuSK (D307 to T494) with C-terminal Avi- and … (mouse, UniProt Q61006 307-494, limits assumed, biotinylated in vitro using the BirA enzyme).
T4 construct: also called mouse Fz; not shown: Avi- and His6-tags
T4 sequence (looked up): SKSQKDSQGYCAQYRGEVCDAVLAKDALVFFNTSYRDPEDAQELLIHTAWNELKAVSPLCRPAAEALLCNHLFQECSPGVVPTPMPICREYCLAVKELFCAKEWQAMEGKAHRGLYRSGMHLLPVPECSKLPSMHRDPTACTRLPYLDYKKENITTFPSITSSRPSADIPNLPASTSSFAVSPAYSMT
Put plainly: bead-binding assay, IgG format: biotinylated antigen on streptavidin beads, flow cytometry, 1:1 fit; average ± s.d., n=3.

Assay [6] addresses T5, hECD: full-length extracellular region of human MuSK (E22 to T495) with C-terminal Avi- and His6-tags (human, UniProt O15146 22-495, biotinylated in vitro using the BirA enzyme).
T5 construct: also called human ECD; not shown: Avi- and His6-tags
T5 sequence: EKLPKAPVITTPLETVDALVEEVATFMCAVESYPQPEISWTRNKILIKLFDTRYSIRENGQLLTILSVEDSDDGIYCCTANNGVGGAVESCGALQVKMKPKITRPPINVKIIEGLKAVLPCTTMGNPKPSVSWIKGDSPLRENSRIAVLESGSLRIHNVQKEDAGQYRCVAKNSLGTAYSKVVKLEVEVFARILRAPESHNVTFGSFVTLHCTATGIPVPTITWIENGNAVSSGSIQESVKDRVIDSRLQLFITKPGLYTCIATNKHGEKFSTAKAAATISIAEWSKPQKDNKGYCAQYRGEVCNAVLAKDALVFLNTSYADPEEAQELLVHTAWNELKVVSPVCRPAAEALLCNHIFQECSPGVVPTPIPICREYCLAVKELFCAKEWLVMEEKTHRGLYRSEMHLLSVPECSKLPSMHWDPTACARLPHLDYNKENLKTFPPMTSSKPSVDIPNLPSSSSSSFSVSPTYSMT
Described as above.

Assay [7] deals with T6, hFz: Fz domain and C-terminal flanking sequence of human MuSK (K314-T495) with C-terminal Avi- and His6-tags (human, UniProt O15146 314-495, biotinylated in vitro using the BirA enzyme).
T6 construct: also called human Fz; not shown: Avi- and His6-tags
T6 sequence: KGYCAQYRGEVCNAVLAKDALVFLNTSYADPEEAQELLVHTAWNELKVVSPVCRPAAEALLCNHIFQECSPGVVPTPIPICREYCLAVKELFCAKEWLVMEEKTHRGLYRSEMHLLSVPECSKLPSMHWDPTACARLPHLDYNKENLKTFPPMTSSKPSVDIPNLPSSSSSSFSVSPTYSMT
The description is as above.

Assay [8] has as its target T7, mECD: full-length extracellular region of mouse MuSK (E22 to T494) with C-terminal Avi- and His6-tags (mouse, UniProt Q61006 22-494, biotinylated in vitro using the BirA enzyme).
T7 construct: range 22-494; also called mouse ECD; not shown: Avi- and His6-tags
T7 sequence (looked up): T2 sequence (looked up)
The description is as above.

In assay [9] the target is T1, human MuSK. Put plainly: ELISA, plate coated with human MuSK at 0.2 µg/ml, dilution series of mAb, goat anti human Fc-HRP and TMB, OD 620 nm (8 min). How it is done: (§2) An ELISA plate was coated with human MuSK (R&D Systems, cat. 10189-MK) or mouse MuSK (in house produced in HEK293 cells) at 0.2 μg/ml. After washing and blocking the plate, a dilution series of the anti-MuSK antibodies was applied and allowed to bind for 2 hours at room temperature. […] OD at 620 nm was measured with a 96 well ELISA plate reader.
A general note: In an ELISA, binding on a coated surface is turned into a signal by an enzyme label.

The target in assay [10] is T2, mouse MuSK. Put plainly: ELISA, plate coated with mouse MuSK at 0.2 µg/ml, dilution series of mAb, goat anti human Fc-HRP and TMB, OD 620 nm (8 min). How it is done:
as §2

B1: 30E1 Fab (Fab, V domains shown)
VH: QVQVQESGPGLVKPSQTLSLTCTVSGGSITARYYSWSWIRQPPGKGLEWMGVIAYDGSTYYSPSLKSRTSISRDTSKNQFSLHLSSVTPDDTAVYYCARGSSRVAAAFDSWGQGTQVTVSS
VL: SYELTQSPSVSVALRRTAKITCGGDNIGSKNTQWYQQKPGQAPVLVIYADSRRPSGIPERFSGSNSGNTATLTISGAQAEDEADYYCHVWDSSTNAWFGGGTHLTVL
notes: Fab format
By Kd is commonly meant a measure of binding affinity in units of concentration. Take B1: the Kd in the assay with human MuSK [1] was found to be 0.07 nM; with mouse MuSK [2] it was 5.39 nM. The “fold difference in affinity, human versus mouse MuSK” value with mouse MuSK [3] is ≥ 1000 fold.

B2: 30A11 Fab (Fab, V domains shown)
VH: B1 VH
VL: SYELTQSPSVTVALRQTAKITCGGDNIASKNVQWYQQKPGQAPSLVIWADSRRPSGIPVRFSGSNFGNTATLTISGAQAEDEADYYCQVWDSSTNVAVFGGGTHLTVL
notes: Fab format
For B2, the Kd turned out to be 0.008 nM with human MuSK [1] and 2.42 nM in the assay with mouse MuSK [2]. Moreover, the “fold difference in affinity, human versus mouse MuSK” value in the assay with mouse MuSK [3] was ≥ 1000 fold.

B3: mIgG2a-X17 (antibody, V domains shown)
VH: EVQLVESGGGLVQPGGSLRLSCAASGFTISYSSIHWVRQAPGKGLEWVASIYSSSGSTYYADSVKGRFTISADTSKNTAYLQMNSLRAEDTAVYYCARGDHGYYVFGYLGMDYWGQGTLVTVSS
VL: DIQMTQSPSSLSASVGDRVTITCRASQSVSSAVAWYQQKPGKAPKLLIYSASSLYSGVPSRFSGSRSGTDFTLTISSLQPEDFATYYCQQSYKPGALITFGQGTKVEIK
notes: chimeric antibody of a human Fab (human CH1) and mouse IgG2a Fc with the LALAPG mutations; also called X17-mIgG2a-LALAPG; antibody X17
For B3, the “EC50 (read off the curve)” value in assay [4] is ~0.5 mg/kg. The Kd in [5] is 0.74 nM; in [6] it was 0.97 nM; in assay [7], 0.61 nM; in assay [8], 1.1 nM.

B4: 16F11 (antibody, V domains shown)
VH: EVQLVESGGGLVQPGGSLSLSCVASGFTFSLYYMNWVRQAPGKGLEWLSVIDTHSIAYYADSVKGRFTISRDNVKNTLYLQLNNLKPEDTALYYCVLGRTALVRWGQGTQVTVSS
VL: DIVMTQSPSSVTASVGEKVTINCKSSQSVVFGSNQKSYLNWYQQRPGQSPRLLIYYASTQESGIPDRFSGSGSTTDFTLTISSVQPEDAAVYYCQQAYSAPTFGSGTRLEIK
notes: human IgG1 with the LALA mutations (L234A, L235A); produced in HEK293 cells
In the case of B4, the “EC50 (read off the curve)” value in the assay with human MuSK [9] and with mouse MuSK [10] was ~20 ng/mL in each case.

These data come from patent US20230151091A1 (NEW YORK UNIVERSITY, published 2023).
